Measured values: US20020045741A1

Target: CHO derived N' FLAG-mNR6 (murine NR6 with an N-terminal FLAG sequence) (mouse) (UniProt Q9JM58)
Assay: BiaCore biosensor, M2 on the sensorchip; concentrated CHO conditioned medium after M2 affinity column

UniProt Q9JM58, sequence (Q9JM58 other isoform, or with tags, fused parts or gaps limits assumed): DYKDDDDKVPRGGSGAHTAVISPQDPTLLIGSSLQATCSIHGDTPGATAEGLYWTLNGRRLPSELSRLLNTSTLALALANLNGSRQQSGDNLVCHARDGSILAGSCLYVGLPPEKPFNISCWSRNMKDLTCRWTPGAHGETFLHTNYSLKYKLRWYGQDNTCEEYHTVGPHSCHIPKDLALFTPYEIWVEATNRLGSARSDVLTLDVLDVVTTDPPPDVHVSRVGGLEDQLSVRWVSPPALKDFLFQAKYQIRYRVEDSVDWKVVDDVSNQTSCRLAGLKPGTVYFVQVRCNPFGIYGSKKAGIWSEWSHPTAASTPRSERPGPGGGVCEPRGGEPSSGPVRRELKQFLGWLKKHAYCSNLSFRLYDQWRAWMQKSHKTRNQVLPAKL

anti FLAG peptide M2 antibody (Kodak Eastman, USA)
M2 binding remaining in the unbound fraction after M2 affinity resin: 20%
